Tests used:
HeLa Kyoto [1] = experiment: solubility in G1/S (NP-40 vs SDS abundance) (log2 ratio); higher = more soluble; settings: cell cycle stage: G1/S
HeLa Kyoto [2] = experiment: melting temperature (median over replicates), in situ; higher = more thermally stable
HeLa Kyoto [3] = experiment: solubility change mitosis vs G1/S (difference of NP-40 vs SDS log2 ratios) (log2 ratio difference); higher = more soluble in mitosis
HeLa Kyoto [4] = experiment: thermal stability score vs G1/S (z-score of summed log2 fold changes over temperatures); higher = more thermally stable than in G1/S
[5] = cell cycle stage: early G1 (4.5 h after nocodazole release)
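Wherever melting temperature (median over replicates), in situ is given: HeLa Kyoto cells synchronized by double thymidine or nocodazole block, proteins quantified by TMT10plex mass spectrometry, three independent biological replicates.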
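Wherever solubility change mitosis vs G1/S (difference of NP-40 vs SDS log2 ratios) is given: synchronized HeLa Kyoto cells (double thymidine block for G1/S, nocodazole release for mitosis), protein amounts in NP-40 versus SDS lysates quantified by mass spectrometry, three biological replicates.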
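Wherever solubility in G1/S (NP-40 vs SDS abundance) is given: HeLa Kyoto cells arrested at G1/S by double thymidine block, proteins quantified by TMT10plex mass spectrometry in mild NP-40 versus SDS extracts, three biological replicates.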
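Wherever thermal stability score vs G1/S (z-score of summed log2 fold changes over temperatures) is given: synchronized HeLa Kyoto cells, proteins quantified by TMT10plex mass spectrometry, three biological replicates, mitosis taken 0.5 h after nocodazole release, G1/S directly after double thymidine block.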

Sequence	solubility in G1/S (log2) (HeLa Kyoto [1])	melting temperature (HeLa Kyoto [2]; cell cycle stage: G1/S) [°C]	melting temperature (HeLa Kyoto [2]; cell cycle stage: mitosis) [°C]	solubility change mitosis (log2) (HeLa Kyoto [3])	thermal stability score (HeLa Kyoto [4]; [5])	thermal stability score (HeLa Kyoto [4]; cell cycle stage: mitosis)
MPHRKERPSGSSLHTHGSTGTAEGGNMSRLSLTRSPVSPLAAQGIPLPAQLTKSNAPVHIDVGGHMYTSSLATLTKYPDSRISRLFNGTEPIVLDSLKQHYFIDRDGEIFRYVLSFLRTSKLLLPDDFKDFSLLYEEARYYQLQPMVRELERWQQEQEQRRRSRACDCLVVRVTPDLGERIALSGEKALIEEVFPETGDVMCNSVNAGWNQDPTHVIRFPLNGYCRLNSVQVLERLFQRGFSVAASCGGGVDSSQFSEYVLCREERRPQPTPTAVRIKQEPLD [KCTD15]	0.447	56	56.9	-0.0635	-2.02	0.00454
MPKKFQGENTKSAAARARRAEAKAAADAKKQKELEDAYWKDDDKHVMRKEQRKEEKEKRRLDQLERKKETQRLLEEEDSKLKGGKAPRVATSSKVTRAQIEDTLRRDHQLREAPDTAEKAKSHLEVPLEENVNRRVLEEGSVEARTIEDAIAVLSVAEEAADRHPERRMRAAFTAFEEAQLPRLKQENPNMRLSQLKQLLKKEWLRSPDNPMNQRAVPFNAPK [CCDC124]	0.214	57.1	53.7	0.537	0.653	-5.08
MPKRKAAGQGDMRQEPKRRSARLSAMLVPVTPEVKPKRTSSSRKMKTKSDMMEENIDTSAQAVAETKQEAVVEEDYNENAKNGEAKITEAPASEKEIVEVKEENIEDATEKGGEKKEAVAAEVKNEEEDQKEDEEDQNEEKGEAGKEDKDEKGEEDGKEDKNGNEKGEDAKEKEDGKKGEDGKGNGEDGKEKGEDEKEEEDRKETGDGKENEDGKEKGDKKEGKDVKVKEDEKEREDGKEDEGGNEEEAGKEKEDLKEEEEGKEEDEIKEDDGKKEEPQSIV [HMGN5]	0.255	59.9	59.8	0.272	-0.636	-5.4
MPKRKVTFQGVGDEEDEDEIIVPKKKLVDPVAGSGGPGSRFKGKHSLDSDEEEDDDDGGSSKYDILASEDVEGQEAATLPSEGGVRITPFNLQEEMEEGHFDADGNYFLNRDAQIRDSWLDNIDWVKIRERPPGQRQASDSEEEDSLGQTSMSAQALLEGLLELLLPRETVAGALRRLGARGGGKGRKGPGQPSSPQRLDRLSGLADQMVARGNLGVYQETRERLAMRLKGLGCQTLGPHNPTPPPSLDMFAEELAEEELETPTPTQRGEAESRGDGLVDVMWEYKWENTGDAELYGPFTSAQMQTWVSEGYFPDGVYCRKLDPPGGQFYNSKRIDFDLYT [CD2BP2]	0.00357	47.9	51.2	0.301	0.517	0.833
MPKTISVRVTTMDAELEFAIQPNTTGKQLFDQVVKTIGLREVWFFGLQYQDTKGFSTWLKLNKKVTAQDVRKESPLLFKFRAKFYPEDVSEELIQDITQRLFFLQVKEGILNDDIYCPPETAVLLASYAVQSKYGDFNKEVHKSGYLAGDKLLPQRVLEQHKLNKDQWEERIQVWHEEHRGMLREDAVLEYLKIAQDLEMYGVNYFSIKNKKGSELWLGVDALGLNIYEQNDRLTPKIGFPWSEIRNISFNDKKFVIKPIDKKAPDFVFYAPRLRINKRILALCMGNHELYMRRRKPDTIEVQQMKAQAREEKHQKQMERAMLENEKKKREMAEKEKEKIEREKEELMERLKQIEEQTKKAQQELEEQTRRALELEQERKRAQSEAEKLAKERQEAEEAKEALLQASRDQKKTQEQLALEMAELTARISQLEMARQKKESEAVEWQQKAQMVQEDLEKTRAELKTAMSTPHVAEPAENEQDEQDENGAEASADLRADAMAKDRSEEERTTEAEKNERVQKHLKALTSELANARDESKKTANDMIHAENMRLGRDKYKTLRQIRQGNTKQRIDEFESM [MSN]	0.0519	52.1	52	-0.0148	-0.264	1.56
MPLENLEEEGLPKNPDLRIAQLRFLLSLPEHRGDAAVRDELMAAVRDNNMAPYYEALCKSLDWQIDVDLLNKMKKANEDELKRLDEELEDAEKNLGESEIRDAMMAKAEYLCRIGDKEGALTAFRKTYDKTVALGHRLDIVFYLLRIGLFYMDNDLITRNTEKAKSLIEEGGDWDRRNRLKVYQGLYCVAIRDFKQAAELFLDTVSTFTSYELMDYKTFVTYTVYVSMIALERPDLREKVIKGAEILEVLHSLPAVRQYLFSLYECRYSVFFQSLAVVEQEMKKDWLFAPHYRYYVREMRIHAYSQLLESYRSLTLGYMAEAFGVGVEFIDQELSRFIAAGRLHCKIDKVNEIVETNRPDSKNWQYQETIKKGDLLLNRVQKLSRVINM [PSMD6]	-0.15	53.3	53.2	-0.189	1	1.09
MPLLGLLPRRAWASLLSQLLRPPCASCTGAVRCQSQVAEAVLTSQLKAHQEKPNFIIKTPKGTRDLSPQHMVVREKILDLVISCFKRHGAKGMDTPAFELKETLTEKYGEDSGLMYDLKDQGGELLSLRYDLTVPFARYLAMNKVKKMKRYHVGKVWRRESPTIVQGRYREFCQCDFDIAGQFDPMIPDAECLKIMCEILSGLQLGDFLIKVNDRRIVDGMFAVCGVPESKFRAICSSIDKLDKMAWKDVRHEMVVKKGLAPEVADRIGDYVQCHGGVSLVEQMFQDPRLSQNKQALEGLGDLKLLFEYLTLFGIADKISFDLSLARGLDYYTGVIYEAVLLQTPTQAGEEPLNVGSVAAGGRYDGLVGMFDPKGHKVPCVGLSIGVERIFYIVEQRMKTKGEKVRTTETQVFVATPQKNFLQERLKLIAELWDSGIKAEMLYKNNPKLLTQLHYCESTGIPLVVIIGEQELKEGVIKIRSVASREEVAIKRENFVAEIQKRLSES [HARS2]	0.0324	53.6	53.3	-0.0551	2.43	1.63
MPLPVALQTRLAKRGILKHLEPEPEEEIIAEDYDDDPVDYEATRLEGLPPSWYKVFDPSCGLPYYWNADTDLVSWLSPHDPNSVVTKSAKKLRSSNADAEEKLDRSHDKSDRGHDKSDRSHEKLDRGHDKSDRGHDKSDRDRERGYDKVDRERERDRERDRDRGYDKADREEGKERRHHRREELAPYPKSKKAVSRKDEELDPMDPSSYSDAPRGTWSTGLPKRNEAKTGADTTAAGPLFQQRPYPSPGAVLRANAEASRTKQQD [PQBP1]	0.0148	58.2	54.6	0.599	-3.93	-4.26
MPLSDFILALKDNPYFGAGFGLVGVGTALALARKGVQLGLVAFRRHYMITLEVPARDRSYAWLLSWLTRHSTRTQHLSVETSYLQHESGRISTKFEFVPSPGNHFIWYRGKWIRVERSREMQMIDLQTGTPWESVTFTALGTDRKVFFNILEEARELALQQEEGKTVMYTAVGSEWRPFGYPRRRRPLNSVVLQQGLADRIVRDVQEFIDNPKWYTDRGIPYRRGYLLYGPPGCGKSSFITALAGELEHSICLLSLTDSSLSDDRLNHLLSVAPQQSLVLLEDVDAAFLSRDLAVENPVKYQGLGRLTFSGLLNALDGVASTEARIVFMTTNHVDRLDPALIRPGRVDLKEYVGYCSHWQLTQMFQRFYPGQAPSLAENFAEHVLRATNQISPAQVQGYFMLYKNDPVGAIHNAESLRR [BCS1L]	-0.165	55.4	54.8	-0.291	0.147	-1.22
MPMFIVNTNVPRASVPDGFLSELTQQLAQATGKPPQYIAVHVVPDQLMAFGGSSEPCALCSLHSIGKIGGAQNRSYSKLLCGLLAERLRISPDRVYINYYDMNAANVGWNNSTFA [MIF]	0.405	53.5	52.5	-0.0337	-7.37	-7.71
MPNSEPASLLELFNSIATQGELVRSLKAGNASKDEIDSAVKMLVSLKMSYKAAAGEDYKADCPPGNPAPTSNHGPDATEAEEDFVDPWTVQTSSAKGIDYDKLIVRFGSSKIDKELINRIERATGQRPHHFLRRGIFFSHRDMNQVLDAYENKKPFYLYTGRGPSSEAMHVGHLIPFIFTKWLQDVFNVPLVIQMTDDEKYLWKDLTLDQAYSYAVENAKDIIACGFDINKTFIFSDLDYMGMSSGFYKNVVKIQKHVTFNQVKGIFGFTDSDCIGKISFPAIQAAPSFSNSFPQIFRDRTDIQCLIPCAIDQDPYFRMTRDVAPRIGYPKPALLHSTFFPALQGAQTKMSASDPNSSIFLTDTAKQIKTKVNKHAFSGGRDTIEEHRQFGGNCDVDVSFMYLTFFLEDDDKLEQIRKDYTSGAMLTGELKKALIEVLQPLIAEHQARRKEVTDEIVKEFMTPRKLSFDFQ [WARS]	0.127	56.7	56.3	-0.199	-0.453	-0.825
